# Experimental data published in the supplement of paper PMC11246515.
# ± gives the standard deviation of the averaged measurements.
# Assay: total protein half-life in vivo (active degradation + dilution); higher = more stable protein
# [1] = E. coli NCM3722 delta-clpP delta-lon delta-hslV, growth: N-lim chemostat, doubling time 6 h
# [2] = E. coli NCM3722 delta-clpP, growth: N-lim chemostat, doubling time 6 h
# [3] = E. coli NCM3722 delta-hslV, growth: N-lim chemostat, doubling time 6 h
# [4] = E. coli NCM3722 delta-lon, growth: N-lim chemostat, doubling time 6 h
# [5] = E. coli NCM3722 delta-smpB, growth: N-lim chemostat, doubling time 6 h
# [6] = wild type E. coli NCM3722, growth: C-lim chemostat, doubling time 3 h
# [7] = wild type E. coli NCM3722, growth: C-lim chemostat, doubling time 12 h
# [8] = wild type E. coli NCM3722, growth: N-lim chemostat, doubling time 6 h
# [9] = wild type E. coli NCM3722, growth: N-lim chemostat, doubling time 12 h
# [10] = wild type E. coli NCM3722, growth: P-lim chemostat, doubling time 6 h
# [11] = wild type E. coli NCM3722, growth: P-lim chemostat, doubling time 12 h
# [12] = wild type E. coli NCM3722, growth: C-lim chemostat, doubling time 6 h
Sequence,total protein half-life in vivo [1],total protein half-life in vivo [2],total protein half-life in vivo [3],total protein half-life in vivo [4],total protein half-life in vivo [5],total protein half-life in vivo [6],total protein half-life in vivo [7],total protein half-life in vivo [8],total protein half-life in vivo [9],total protein half-life in vivo [10],total protein half-life in vivo [11],total protein half-life in vivo [12]
MERLKRMSVFAKVVEFGSFTAAARQLQMSVSSISQTVSKLEDELQVKLLNRSTRSIGLTEAGRIYYQGCRRMLHEVQDVHEQLYAFNNTPIGTLRIGCSSTMAQNVLAGLTAKMLKEYPGLSVNLVTGIPAPDLIADGLDVVIRVGALQDSSLFSRRLGAMPMVVCAAKSYLTQYGIPEKPADLSSHSWLEYSVRPDNEFELIAPEGISTRLIPQGRFVTNDPMTLVRWLTAGAGIAYVPLMWVINEINRGELEILLPRYQSDPRPVYALYTEKDKLPLKVQVVINSLTDYFVEVGKLFQEMHGRGKEK,5.96 ± 0.4 h,5.9 ± 0.28 h,6.51 ± 0.75 h,6.27 ± 0.31 h,6.03 ± 0.19 h,3.47 ± 0.21 h,11 ± 0.14 h,5.69 ± 0.44 h,13.9 ± 0.74 h,5.75 ± 0.69 h,12.7 ± 0.32 h,
MERNKLARQIIDTCLEMTRLGLNQGTAGNVSVRYQDGMLITPTGIPYEKLTESHIVFIDGNGKHEEGKLPSSEWRFHMAAYQSRPDANAVVHNHAVHCTAVSILNRSIPAIHYMIAAAGGNSIPCAPYATFGTRELSEHVALALKNRKATLLQHHGLIACEVNLEKALWLAHEVEVLAQLYLTTLAITDPVPVLSDEEIAVVLEKFKTYGLRIEE [P0AB87],,,,,,2.81 ± 0.01 h,7.71 ± 0.3 h,,,,,4.78 ± 0.5 h
MERVSITERPDWREKAHEYGFNFHTMYGEPYWCEDAYYKLTLAQVEKLEEVTAELHQMCLKVVEKVIASDELMTKFRIPKHTWSFVRQSWLTHQPSLYSRLDLAWDGTGEPKLLENNADTPTSLYEAAFFQWIWLEDQLNAGNLPEGSDQFNSLQEKLIDRFVELREQYGFQLLHLTCCRDTVEDRGTIQYLQDCATEAEIATEFLYIDDIGLGEKGQFTDLQDQVISNLFKLYPWEFMLREMFSTKLEDAGVRWLEPAWKSIISNKALLPLLWEMFPNHPNLLPAYFAEDDHPQMEKYVVKPIFSREGANVSIIENGKTIEAAEGPYGEEGMIVQQFHPLPKFGDSYMLIGSWLVNDQPAGIGIREDRALITQDMSRFYPHIFVE [P0ADT5],,4.7 ± 0.6 h,4.25 ± 0.46 h,4.93 ± 0.34 h,4.3 ± 0.17 h,3.13 ± 0.18 h,9.63 ± 0.61 h,4.46 ± 0.15 h,8.2 ± 1 h,5.65 ± 0.24 h,11.5 ± 0.2 h,5.78 ± 1 h
MERVYRTDLKLLRYFLAVAEELHFGRAAARLNMSQPPLSIHIKELENQLGTQLFIRHSRSVVLTHAGKILMEESRRLLVNANNVLARIEQIGRGEAGRIELGVVGTAMWGRMRPVMRRFLRENPNVDVLFREKMPAMQMALLERRELDAGIWRMATEPPTGFTSLRLHESAFLVAMPEEHHLSSFSTVPLEALRDEYFVTMPPVYTDWDFLQRVCQQVGFSPVVIREVNEPQTVLAMVSMGIGITLIADSYAQMNWPGVIFRPLKQRIPADLYIVYETQQVTPAMVKLLAALTQ,,3.26 ± 0.21 h,3.03 h,,,,,3.31 h,5.46 h,,,
MESGHRFDAQTLHSFIQAVFRQMGSEEQEAKLVADHLIAANLAGHDSHGIGMIPSYVRSWSQGHLQINHHAKTVKEAGAAVTLDGDRAFGQVAAHEAMALGIEKAHQHGIAAVALHNSHHIGRIGYWAEQCAAAGFVSIHFVSVVGIPMVAPFHGRDSRFGTNPFCVVFPRKDNFPLLLDYATSAIAFGKTRVAWHKGVPVPPGCLIDVNGVPTTNPAVMQESPLGSLLTFAEHKGYALAAMCEILGGALSGGKTTHQETLQTSPDAILNCMTTIIINPELFGAPDCNAQTEAFAEWVKASPHDDDKPILLPGEWEVNTRRERQKQGIPLDAGSWQAICDAARQIGMPEETLQAFCQQLAS,4.97 ± 0.25 h,3.99 ± 0.17 h,4.28 ± 0.11 h,,4.214 ± 0.024 h,3.14 ± 0.059 h,8.45 ± 0.26 h,4.46 ± 0.42 h,7.26 ± 1.5 h,5.58 ± 0.14 h,10.3 ± 1.2 h,5.02 ± 0.63 h
MESLASLYKNHIATLQERTRDALARFKLDALLIHSGELFNVFLDDHPYPFKVNPQFKAWVPVTQVPNCWLLVDGVNKPKLWFYLPVDYWHNVEPLPTSFWTEDVEVIALPKADGIGSLLPAARGNIGYIGPVPERALQLGIEASNINPKGVIDYLHYYRSFKTEYELACMREAQKMAVNGHRAAEEAFRSGMSEFDINIAYLTATGHRDTDVPYSNIVALNEHAAVLHYTKLDHQAPEEMRSFLLDAGAEYNGYAADLTRTWSAKSDNDYAQLVKDVNDEQLALIATMKAGVSYVDYHIQFHQRIAKLLRKHQIITDMSEEAMVENDLTGPFMPHGIGHPLGLQVHDVAGFMQDDSGTHLAAPAKYPYLRCTRILQPGMVLTIEPGIYFIESLLAPWREGQFSKHFNWQKIEALKPFGGIRIEDNVVIHENNVENMTRDLKLA,5.4 ± 0.69 h,4.93 ± 0.32 h,5.12 ± 0.4 h,5.92 ± 0.92 h,4.33 ± 0.059 h,3.21 ± 0.37 h,10.2 ± 1.3 h,4.77 ± 0.23 h,8.64 ± 0.18 h,6.13 ± 0.18 h,11.9 ± 0.27 h,5.72 ± 0.084 h
